Reference: publication PMC9691602

Experiments:
[1] = target: AcrIF24 (P. aeruginosa prophage); experiment: SEC-SAXS
[2] = target: AcrIF24 (P. aeruginosa prophage); experiment: cryo-EM structure

- stoichiometry N [1]: 2
- stoichiometry N [2]: 2
Substance: AcrIF24 (natural protein)
